In the nanobody polyreactivity screen of Harvey et al. (2022):

experiment: yeast display, Sf9 membrane polyspecificity reagent, FACS + sequencing; frameworks hold sequencing errors
In short: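 Synthetic nanobody libraries on Saccharomyces cerevisiae BJ5465 were galactose-induced for 36–48 hours, stained 1 hour at 4 °C with 10% biotinylated, detergent-solubilized Sf9 membrane reagent and enriched on streptavidin microbeads. FACS then separated cells into low and high (top ~1%) gates by anti-HA (expression) and streptavidin (reagent binding) fluorescence. Genes were colony-PCR amplified, MiSeq 2 × 250 sequenced and CDR-length filtered. A clone's polyreactivity label is that of its gate of origin.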

| Sequence | polyreactivity (PSR sort gate) |
| --- | --- |
| QVQLVESGGGLVQAGGSLRLSCAASASISYYYAMGWYRQETGKERELVAAITRTGTTNYADSVKGRFTISRDNAKNTVYLQMNSLKPEDTAVYYCAKRSTGRLQSYNYRGQGTQVTVSS | low polyreactivity |
| QVQLVESGGGLVQAGGSLRLSCAASGRIFTWNAMGWYRQAPGKERELVATINRGGNTNYADSVKGRFTISRDNAKNTVYLQMNSLKPEDTAVYYCAARYHYSNLYRFAYGYWGQGTQVTVSS | high polyreactivity |
| QVQLVESGGGLVQAGGSIRLSCAASRFTFGPYAMGWYRQAHVKERELVAAITIRGGSPYADSVKGRFTISRDNAKNTVYLQMNSLKPEDTAVYYCATVRALEYNYWGQGTQVTVSS | low polyreactivity |
| QVQLVESGGGLVQAGGSLRLSCAASGSIFNAYDMGWYRQAPGKERELVAGISSSDSTYYADSVKGRFTISRDNAKNTVYLQMNSLKPEDTAVYYCAADPVFAAAYIHLYGIYDSWGQGTQVTVSS | low polyreactivity |
| QVQRVESGGGLVQAGGSLRLSCAASGFIFETYAMGWYRQAPGKERELVAAISWRTGRTYYADSVKGRFTISRDNAKNTVYLQMNSLKPEDTAVYYCNADYGGTSTLKDFDYWGQGTQVTVSS | low polyreactivity |
| QVQIEESGGGLVQEGGSLRISCAASGRIFVYYAMGWNRQAPGKDWELVAAISSGGNTYADSVKGRFTISRDNAKITVYLQMYSLKPDDTAVYYCNASPVSSHVHPKRGYEYWGQGTQVNVSS | low polyreactivity |
| QVQLVESGGGLVQAVVSLRLSCAASGRIFAYNAMGWYIQATGKERELVAAISSGGNTYYADSVKGRFTISRDNAKNTVYLQMNSLKPEDTAVYYCNAGVGWHRYYSNYDYWGLGTQVTVSS | low polyreactivity |
| QVQLVESGGGLVKAGGSLRLSCADSGRTFYINAMGWYRQAPGKERELVAAISNYGSSTYYADTVKGRFTISRDNAKYTVYLLMISLKPVDSAVYYCAASYGYGGDYDYWGQGTQGTVSS | high polyreactivity |
| QVQLVESGGGLVQAGGSLRLSCAASGITFDGNAMGWYRQEPGKERELVAAIDFSGGSTTYADSVKGRFTISRDNAKNTVYLQMNSLKPEDTAVYYCAAVDWYGFLAVEEYYWGQGTQVTVSS | high polyreactivity |
| QVQLVESGGCLVQAGGTLRLSCAASGFIFYHNAMGWYRQAPGKERELVAAISGSGGSTHYADSVKGRFTISRDNAKNSVYLQMNSLKPEDTAVYYCARRFWFHYYGYDYWGQGSQVTVSS | high polyreactivity |
| QVQLVESGGGLVQAGGSLRLSCAASGSTFYGYAMGWYRQAPGKERELVAAIRSGGRTYYADSVKGRFTISRDNAKNTVYLQMNSLKPEDTAVYYCNARSFNYRTFGGKMGYWGQGTQVTVSS | high polyreactivity |
| QVQLVESGGGLVQAGGSLRLSCAASGSTYYTYAMGWYRQAPGKERELVAAITYSDGDTYYADSVKGRFTISRDNAKHTVYLQMNSLKPEDTAVYYCAADYQGQPGTGNLEYWGQGTQVTVSS | low polyreactivity |
| QVQLVESGGGLVQAGGSLRLSCAASGSTFRSYAMGWNRQAPGKERELVAAISGRGGNTYYADSVKGRFTISRDNAKNTVYLLMNSLKPEDTAVYYCARKTVYYGSDYWGQGTQVTVSS | high polyreactivity |
| QVQLVESGGGLVQAGGSLRLSCAASGRILVRYAMGWYRQAPGKERELVAAISSSGSSTYYADSVKGRFTISRYNAKNTVYLQMNSLKPEDTAVYYCAADWEYVFYEYGYWGQGTQVTVSS | low polyreactivity |
| QVQLVESGGGLVQAGGSLRLSCAASGNTFIDYAMGWYRQAPGKERELVASITSGGGSTYYADSVKGRFTISRDNAKNTVYLQMNSLKPEDTAVYYCAAERYYSEAIFRSYDYWGQGTQVTVSS | low polyreactivity |
| QVQLVESGGGLVQAGGILRLSCDASGRIFYTYAMGWYRHGPGQERELVAAISRSGTSTYYADSLKGRFTIARDNEKNHVYLQMNSLKPEDTAVYYCAIYKRLPDYGYWGQGTLVTVSS | high polyreactivity |
| LVQAGGSLRLSCAASVNTSGKNAMGWYRQAPGKERELVAAISSAGSTNYADSVKGRFTISRDNAKNTVYLQMNSLKPEDTAVYYCNAVRRLATVKTYRFNYWGQGTQVTVSS | low polyreactivity |
| QVQLVESGGGLVQAGGSLRLSCAASGSIFIYYAMGWKRQAPGKERELVAAISWRGGGTYYADSVKGRFTISRDNAKNTVYLQMNSLKPEDTAVYYCAADFYDPFDYWGQGTQVTVSS | low polyreactivity |
| QVQLVESGGGLVQAGGSLRLSCAASGSTFEYYAMGWYRQAPGKERELVAAISRGGSTYYADSVKGRFTISRDNAKNTVYLQMNSLKPEDTAVYYCAAAPDYRAEYDYWGQGTQVTVSS | low polyreactivity |
| QDQLGESGGGVVQAGGSLRLSCAAYGRTLHYYAMGWYRQAPGKERELVAGIRDSGGSTYYADSVKGRFTISRDNEMNTVYFLMNSLKPEDTAVYYCAARSHRRLMYYWGQGTQVNVSS | high polyreactivity |
| QVQLVESGGGLVQAGGSLRLSCAASGITFTAYAMGWYRQAPGKERELVATINSTGITNYADSVKGRFTISRDNAKNTVYLQMNSLKPEDTAVYYCAADLLDISSYDGMDYWGHGTQVTVSS | low polyreactivity |
| QVQLVESGGGLVQAGGSLRLSCAASGRTFSRYVMGWYRQAPGKERELVATISDVGNTYYADSVKGRFTISRDNAKNTVYLQMNSLKPEDTAVYYCNRVYFTSRQGQMYYWGQGTQVTVSS | high polyreactivity |

| Sequence | polyreactivity (PSR sort gate) |
| --- | --- |
| QVQLVESVGGLVQAGGSLRLSCAASGYNFWSNTMGWYRQAPGKERELVAAISQSTASTYYADSVKGRFTISRDNAKNTVYLQMNSLKPEDTAVYYCAAYYNFGDYEYDYWGQGTQVTVSS | low polyreactivity |
| QVQLVESGGGLVQAGGSLRLSCAASGFTFKGYTMGWYRQAPGKERELVAAISRSGGRTYYADSVKGRFTISRDNAKNTVYLQMNSLKPEDTAVYYCAAVIIGGHDYWGQGTQVTVSS | high polyreactivity |
| QVQLVESGGGLVQAGGSLRLSCAASGRTFRWYAMGWYRKAPGKEWELVAAISYRGGSTYADSVKGRFTISRDNEKNTVNLQMNSLKPEDTAVYYCAAKYYDYGPYYYWGQGTQETVSS | high polyreactivity |
| QVQLVESGGGLVQAGGSLRLSCAASGSTFSEYVMGWYRQAPGKQRELVAAIRSNGGSTYYADSVKGRFTISRDNAKNTVYLQMNSLKPEDTAVYYCNRVYSRRTYNSPLYDYWGQGTQVTVSS | high polyreactivity |
| QVQLVESGGGLVQAGGSLRLSCAASGRIFYSYAMGWYRQAPGKERELDAAITRGGSTSYADSVKGRFTISRDNAKNTVYLQMNSLKPEDTAVYYCATRQFYSYWKYYYWGQGTQVTVSS | high polyreactivity |
| QVQLVDSGGGLVQAGGSLRLSCAASGFIFRRYAMGWYRQAPGKERDLVAVIRSSGGSTYYADSVKGRFTISRDNAKNTVYLQMNSLKPEDTAVYYCAARSILGYRSYGYWGEGTQVTVSS | high polyreactivity |
| QVQLVESGGGLVQAGGSLRLSCAASGGIFQGYAMGWYRQAPGKERELVAAISRSGGRTYYADSVKGRFTISRDNAKKTVYLQMNSLKPEDTSVYYCAADIRLSKYDYRGQGTQVTVSS | high polyreactivity |
| QVQLVESGGGLVQAGGSLRLSCAASGRIFWVNAMGWYRQAPGKEREFVAAISWSGGSTYADSVKGRFTISRDNAKNTVYLQMNSLKPEDTAVYYCAADRYNGRYGYWGQGTQVTVSS | high polyreactivity |
| QVQHVESVGGLVQAGGSLRLSCAASGYIFDYYDIGWYRQAPGKERELVAAINWSGGNTYYADSVKGRFTISRDNAKNTVYLQMKSLKPEDTAVYYCNADPTWSLEYGYWGQGTQVTVSS | low polyreactivity |
| QVQLVESGGGLVQAGGSLRFSCAASGSTFLSNAIGWYRLAPGKERELVAAISIGGGRTYYADSVKGRFTISRDNAKNTVYLQMNSLKPEYTAVYYCNAVGRHTDAYHYDYWGQGTQVTVSS | high polyreactivity |
| QVQLVESGGGLVQAGGSLRLSCAASGSIFYWYAIGWYRQAPGKETELVAAISSGGSTNYADSVKGRFTISRDNAKNTVYLQMNSLKPEDTAVYYCNADIRSFYWEYYTGLDSWGQGTQVTVSS | low polyreactivity |
| QVQLVESGGGLVQAGGSLRLSCAASGSTFWDYAMGWYRQAPGKERELVAAISTSGGSTYYADSVKGRFTISRDNAKNTVYLQMNSLKPEDTAVYYCAAGRVRRRVWYNYWGQGTQVTVSS | high polyreactivity |
| QVQLVESGGGLVQAGGSLRLSCAASGSIFSPNARGWYRQAPGKEREVVAGISWSGDGTYYADSVKGRFTISRDYAKNTVYLQMNSLKPEDTAVYYCAARFGRYSHRYYYWGQGTQVTVSS | high polyreactivity |
| QVQLVESGPGLVQAGVSLRLSCAASGSIFAYYAMGWYRQAPGKERELVAAISSRGGNTYYADSVKGRFTISRHYAKNSVYLQMNSLKPEDTAVYYCAADYQYSYGEYDYWGQGTQVTVSS | high polyreactivity |
| QVQLVESGGGLVQAGGSLRLSCAASGSIIGRNAMGWYRQAPGKERELVAAISTRGGRTYYADSVKGRFTISRDNAKNTVYLQMNSLKPEDTAVYYCAATYQYLKSGYYWGQGTQVTVSS | high polyreactivity |
| QVQLVESGGGLVQAGGSLRLSCAASGSTYYNAMGWYRQAPRKERELVAAIRFRSGSTYYADSVKGRFTISRDNAKITVYFQMNSLKPEDTAVYYCAADNKRSWRYAYNYWGQGTQVTVSS | high polyreactivity |
| QVQLVESGGGLVQAGGSLRLSCAASGIIFKIYAMGWYRQAPGKARELVAAISWRGGSTYYADSVKGRFTISRDNAKNTVYLQMNSLKPEDTAVYYCAAARGYRTGYGYWGQGTQVTVSS | high polyreactivity |
| QVQLVESGGGLVQAGGSLRLSCAASGSILLVYAMGWYRQAPGKERELVATITWTDGSTYYADSVKGRFTISRDNAKNTVYLQMNSLKPEDTAVYYCNAGASVNSPLVAEYYYWGQGTQVTVSS | low polyreactivity |
| QVQLVESGGGVVQAGGSLRLSCAASGRIFDIYAMGWYRQAPGKARELVAAITRGGSTYADSVKGRFTISRDNAKYTVYLQMNSLKPEVTAVYYCAASLYSYRSPYTFYYWGQGTQVTVSS | high polyreactivity |
| QVQLVESGGGLVQAGGSLRLSCAASGSNFSSYALGWYRQAPGKERELVAAITSGGSTYYADSVKARFTISRDNAKNTVYLQMNSLKPEDTAVYYCNADISRDNDFDYWGQGTQVTVSS | low polyreactivity |
| QVQLVESGGGLVQAGGSLRLSCAASGSIFSYYSMGWYRQAPGKERELVAAITSGDGTNYADSVKGRFTISRDYAKNTVYLQMNSLKPEDTAVYYCAADAVDSYWREDYWGQGTQVTVSS | low polyreactivity |
